The values that follow come from the Immune Epitope Database (IEDB).

The Kd is the concentration at which binding is half-saturated.

Common to all, as to assay: IEDB peptide-MHC binding, purified MHC/competitive/radioactivity; filed as Kd, often an IC50 or EC50 that approximates it; ≥ and ≤ were set here for values at or beyond the usual limits of such assays
The target in test [1] is HLA-A*33:01.
In test [2] the target is HLA-A*11:01.
The target of test [3] is HLA-A*68:01.
The target in test [4] is HLA-A*03:01.
In test [5] the target is HLA-A*31:01.
Setting [6] is: source organism: SARS coronavirus Tor2.
Setting [7] is: source organism: Vaccinia virus WR.
Setting [8] is: source organism: Dengue virus 2 Jamaica/1409/1983.
Where [9] appears, read: source organism: Vaccinia virus Copenhagen.
Where [10] appears, read: source organism: Mammarenavirus lassaense.
The mark [11] stands for this setting: source organism: Dengue virus 3 Martinique/1243/1999.
The mark [12] stands for this setting: source organism: Dengue virus 1 Brazil/97-11/1997.

With ACQEAVKLK, the Kd in test [1] (source organism: Mammarenavirus juninense) is not below 77700 nM.

Turning to AFSLDVSEK, the Kd in test [2] (setting [6]) was 3550 nM; in test [3] (setting [6]), 6740 nM; in test [4] (setting [6]) it was 12100 nM; in test [5] (setting [6]), 12300 nM; in test [1] (setting [6]), not below 77700 nM.

For AIEKDRLDK, the Kd in test [2] (setting [7]) is 1120 nM; in test [3] (setting [7]) it was not below 77700 nM; in test [4] (setting [7]) it was not below 78000 nM; in test [5] (setting [7]), not below 77900 nM; in test [1] (setting [7]) it was not below 77700 nM.

As to ALALGMMVLK, the Kd is 13.7 nM in test [2] (setting [8]) and 24 nM in test [4] (setting [8]).

In the case of AVEDEEFWK, the Kd in test [2] (source organism: Dengue virus 3 Sri Lanka/1266/2000) is 939 nM.

With AVVCYNSNY, the Kd was 698 nM in test [2] (setting [6]); 10100 nM in test [3] (setting [6]); 5400 nM in test [4] (setting [6]); 14200 nM in test [5] (setting [6]); not below 77700 nM in test [1] (setting [6]).

As to CLAVHECFVK, the Kd was 3460 nM in test [2] (setting [6]); 2270 nM in test [3] (setting [6]); 3050 nM in test [4] (setting [6]); 7510 nM in test [5] (setting [6]); not below 61400 nM in test [1] (setting [6]).

As to CLEWLRAKR, the Kd in test [2] (setting [7]) was not below 49200 nM; in test [3] (setting [7]), 294 nM; in test [4] (setting [7]) it was 13100 nM; in test [5] (setting [7]) it was 76.2 nM; in test [1] (setting [7]) it was 438 nM.

Consider CLLAISAVY, for which the Kd in test [2] (setting [7]) is 5040 nM; in test [3] (setting [7]), 160 nM; in test [4] (setting [7]), 987 nM; in test [5] (setting [7]) it was 368 nM; in test [1] (setting [7]), 8530 nM.

As for CQLMYALEPR, the Kd was determined as 39.2 nM in test [2] (setting [9]); 7.65 nM in test [3] (setting [9]); 58 nM in test [4] (setting [9]); 1050 nM in test [5] (setting [9]); 14.4 nM in test [1] (setting [9]).

For the sequence CYLDTNIKM, the Kd in test [2] (setting [7]) is not below 77900 nM; in test [3] (setting [7]), not below 25800 nM; in test [4] (setting [7]) it was not below 38600 nM; in test [5] (setting [7]) it was 285 nM; in test [1] (setting [7]), 10900 nM.

Regarding DENKWKSAR, the Kd in test [1] (setting [8]) came to 306 nM.

As to DIETAIRAGY, the Kd in test [2] (setting [7]) worked out at 5720 nM; in test [3] (setting [7]), 1240 nM; in test [4] (setting [7]) it was 2480 nM; in test [5] (setting [7]) it was 19400 nM; in test [1] (setting [7]) it was 6790 nM.

As to DIFVSLVKK, the dissociation constant (Kd) is 27.8 nM in test [2] (setting [7]); 0.538 nM in test [3] (setting [7]); 9920 nM in test [4] (setting [7]); not below 77900 nM in test [5] (setting [7]); 54 nM in test [1] (setting [7]).

Turning to DIVNGKECCY, the Kd is not below 69800 nM in test [2] (setting [7]); not below 70200 nM in test [3] (setting [7]); not below 70100 nM in test [4] (setting [7]); not below 70000 nM in test [5] (setting [7]); not below 70000 nM in test [1] (setting [7]).

As to DIVNNFITK, the Kd was 1010 nM in test [2] (setting [7]); 86.4 nM in test [3] (setting [7]); not below 40800 nM in test [4] (setting [7]); not below 29200 nM in test [5] (setting [7]); not below 26800 nM in test [1] (setting [7]).

Regarding DLIKKSDAK, the Kd in test [2] (setting [7]) was not below 31300 nM; in test [3] (setting [7]), 2160 nM; in test [4] (setting [7]), not below 38000 nM; in test [5] (setting [7]) it was not below 77900 nM; in test [1] (setting [7]), 6630 nM.

For the sequence DLVKSSFVKK, the Kd in test [2] (setting [7]) was 177 nM; in test [3] (setting [7]) it was 1130 nM; in test [4] (setting [7]), 156 nM; in test [5] (setting [7]), 169 nM; in test [1] (setting [7]), 281 nM.

Consider DMMFINSTCY, for which the Kd in test [2] (setting [7]) was 10800 nM; in test [3] (setting [7]), 1910 nM; in test [4] (setting [7]), 821 nM; in test [5] (setting [7]), 974 nM; in test [1] (setting [7]), 883 nM.

DSCNANGCEH: the dissociation constant Kd in test [2] (setting [10]) is not below 69700 nM; in test [3] (setting [10]) it was not below 70100 nM; in test [4] (setting [10]) it was not below 70000 nM; in test [5] (setting [10]), not below 70000 nM; in test [1] (setting [10]), not below 70000 nM.

As for DVIGERIKR, the dissociation constant (Kd) amounted to 24.7 nM in test [3] (setting [11]) and 38.7 nM in test [1] (setting [11]).

As for DWLEKHGAER, in test [1] (setting [12]), the Kd turned out to be 127 nM.

As to EACYIYKSGK, the Kd in test [2] (setting [7]) is 1010 nM; in test [3] (setting [7]), 31.8 nM; in test [4] (setting [7]) it was 1080 nM; in test [5] (setting [7]) it was 6450 nM; in test [1] (setting [7]), 11100 nM.

For the sequence EARIVDKFGK, the dissociation constant Kd was 2570 nM in test [2] (setting [7]); 101 nM in test [3] (setting [7]); 7730 nM in test [4] (setting [7]); 633 nM in test [5] (setting [7]); not below 20500 nM in test [1] (setting [7]).

Regarding ETKGVERLK, the Kd in test [3] (setting [11]) came to 33.3 nM.

As for ETLNEYKQLY, the Kd is 12400 nM in test [2] (setting [7]); 331 nM in test [3] (setting [7]); 15100 nM in test [4] (setting [7]); not below 41300 nM in test [5] (setting [7]); 541 nM in test [1] (setting [7]).

As to EVHTWTEQYK, the Kd in test [3] (setting [12]) was found to be 15.2 nM.

For the sequence FIKYVNGWVK, the Kd in test [2] (setting [7]) came to 1.56 nM; in test [3] (setting [7]), 1.13 nM; in test [4] (setting [7]) it was 1.76 nM; in test [5] (setting [7]), 115 nM; in test [1] (setting [7]) it was 111 nM.
